# Test results published in article PMC3056899.
# Read-outs that look alike come from different tables or passages of the source.
# What was measured:
# [1] = target: T1, CFIm25 delN21 (crystal);CFIm68 N13-235 (crystal) (human;human, UniProt O43809;Q16630 21-227;13-235, |); assay: X-ray crystallography
# [2] = target: T1, CFIm25 delN21 (crystal);CFIm68 N13-235 …; assay: X-ray crystallography; remark: listed apart in the source
# CFIm25;CFIm68 RRM = CFIm25;CFIm68 RRM (human;human, UniProt O43809;Q16630 1-227;13-235, |); assay: EMSA
# CFIm25 = CFIm25 (human, UniProt O43809 1-227); assay: EMSA
# Chain of CFIm25 (O43809 whole entry): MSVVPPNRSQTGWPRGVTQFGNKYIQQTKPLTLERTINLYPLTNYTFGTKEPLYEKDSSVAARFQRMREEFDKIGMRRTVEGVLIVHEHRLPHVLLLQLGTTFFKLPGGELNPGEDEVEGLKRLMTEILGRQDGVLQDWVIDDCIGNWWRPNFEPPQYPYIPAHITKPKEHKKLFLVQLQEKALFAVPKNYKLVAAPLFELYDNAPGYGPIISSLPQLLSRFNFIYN
# T1 sequence (O43809 21-227, chain 1 of 2): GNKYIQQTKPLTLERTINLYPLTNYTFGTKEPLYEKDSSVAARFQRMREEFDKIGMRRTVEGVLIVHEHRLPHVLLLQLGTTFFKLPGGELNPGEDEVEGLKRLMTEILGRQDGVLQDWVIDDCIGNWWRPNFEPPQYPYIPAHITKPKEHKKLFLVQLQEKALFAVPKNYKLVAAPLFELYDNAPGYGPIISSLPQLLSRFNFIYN
# T1 sequence (Q16630 13-235, chain 2 of 2): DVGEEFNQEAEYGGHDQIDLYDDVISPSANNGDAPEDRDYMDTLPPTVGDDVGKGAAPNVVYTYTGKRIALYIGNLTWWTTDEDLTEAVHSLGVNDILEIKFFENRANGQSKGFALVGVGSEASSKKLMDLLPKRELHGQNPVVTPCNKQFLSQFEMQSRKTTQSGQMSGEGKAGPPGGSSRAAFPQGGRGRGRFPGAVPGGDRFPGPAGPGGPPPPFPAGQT
# Chain of CFIm25;CFIm68 RRM (O43809 whole entry, chain 1 of 2): as the sequence (O43809 whole entry) above
# Chain of CFIm25;CFIm68 RRM (Q16630 13-235, chain 2 of 2): as the sequence (Q16630 13-235, chain 2 of 2) above
binder,measurement,setting,value
UAUUUUGUA (ssRNA) [9-mer RNA],binding result,[1],binds
UUGUAU (ssRNA) [6-mer RNA],binding result,[2],binds
GGGUGUAAAACAGAUGAUGUAU (ssRNA) [PAPOLA upstream element as printed],Kd,CFIm25;CFIm68 RRM,222 nM
same,Kd,CFIm25,645 nM
